In assay [1] the target is HSP90α mutant Y61A (Homo sapiens, UniProt P07900, Y61A). Put plainly: biochemical.
Assay [2] concerns the target HSP90α (90 kD heat shock protein alpha) (Homo sapiens, UniProt P07900). Put plainly: biochemical.
In assay [3] the target is CDC37 recombinant protein (UniProt Q16543). Put plainly: ITC. (In ITC the heat of successive injections is recorded.)
Assay [4] shares this target. Description: ITC. The source holds these as a separate data set.

Read-outs that look alike come from different tables or passages of the source.

Broadly, the Kd is the constant that tells how readily two partners part at equilibrium.

CDC37 recombinant protein, sequence (Q16543 whole entry): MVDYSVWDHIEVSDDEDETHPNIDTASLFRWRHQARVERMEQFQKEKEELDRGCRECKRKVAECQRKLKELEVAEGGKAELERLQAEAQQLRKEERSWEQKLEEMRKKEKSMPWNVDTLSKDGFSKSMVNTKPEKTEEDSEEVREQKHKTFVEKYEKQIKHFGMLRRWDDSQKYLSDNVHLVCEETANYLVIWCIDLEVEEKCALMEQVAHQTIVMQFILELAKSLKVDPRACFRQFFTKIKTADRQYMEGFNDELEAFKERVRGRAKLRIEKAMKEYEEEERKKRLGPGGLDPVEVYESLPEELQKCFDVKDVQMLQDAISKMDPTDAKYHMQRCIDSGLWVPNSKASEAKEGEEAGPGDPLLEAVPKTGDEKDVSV

`CC(C)=CC/C=C(\C)[C@H]1CC[C@]2(C)[C@@H]1[C@H](O)C[C@@H]1[C@@]3(C)CC[C@H](O[C@@H]4O[C@H](CO)[C@@H](O)[C@H](O)[C@H]4O[C@@H]4O[C@H](CO)[C@@H](O)[C@H](O)[C@H]4O)C(C)(C)[C@@H]3CC[C@]12C` [Rg5, ginsenoside Rg5]: the Kd in assay [1] was 232 ± 34 µM; in assay [2], 24.8 ± 1.76 µM.
As for “HSP90α WT recombinant protein from E. coli (from UniProt P07900 1-732) (natural protein)”, the dissociation constant (Kd) was determined as 2.68 µM in assay [3] and 34.4 µM in assay [4].
The corresponding values for “HSP90α Y61A recombinant protein from E. coli (from UniProt P07900 1-732) (natural protein)” are 7.59 µM and 8.23 µM.
